Patent US9234893B2, “Marker comprising anti-CK8/18 complex autoantibody and its use for diagnosing cancer” (Korea Research Institute of Bioscience and Biotechnology, priority 2011, dated 2016)
Entries after “also recorded” stand apart in the source; their conditions may differ.

Assays:
TAB-K94 antibody = assay: ELISA with selected phage as coating antigen and TAB-K94 antibody as primary antibody; type: binding, mouse; conditions: 100 ng/100 μl TAB-K94 antibody, absorbance at 450 nm
Description: In order to examine the reactivity of the selected TAB-K94 antibody-specific phages against TAB-K94 antibody, ELISA was performed using the phage as a coating antigen and TAB-K94 antibody as a primary antibody. The detailed method is as follows:
[…] was diluted in 100 μl of a coating solution (0.1 M sodium bicarbonate buffer, pH 8.6) and added to each well of 96-well Maxisorp ELISA plate. For antigen coating, the phage-added plate was stored at 4° C. for 16 hours or longer. After phage coating, 300 μl of skim milk solution (5% (w/v) skim milk/TBST) was added, and reacted at room temperature for 1 hour to block the remaining sites after antigen coating. After blocking, the plate was washed with TBST (TBS containing 0.1% Tween-20) twice, and 100 ng/100 μl of TAB-K94 antibody was added thereto, and reacted at room temperature for 90 minutes. […] The secondary antibody was also reacted at room temperature for 90 minutes, and the plate was washed with TBST six times. Color development was performed using a TMB solution (Pierce) as a substrate for HRP. Absorbance was measured at 450 nm to quantify the antigen-antibody reaction.

Chang liver cells = assay: Flow cytometry after intracellular staining of cell lines with TAB-K94 antibody; type: cell-based; conditions: normal cell line
Description: (§1) The reactivity of autoantibodies against cancer cells was examined by flow cytometric analysis of cancer cell line after intracellular staining following the fixation and permeabilization. The method is described in detail as follows. A liver cancer cell line, HepG2 or Hepa1c1c7 at 70-80% confluency was treated with trypsin, detached from the cell culture plate, and washed with PBS. 100 μl of Cytofix/Cytoperm solution (BD) per 2×10^5 cells was added thereto, and the cells were incubated at 4° C. for 20 minutes for fixation and permeabilization. After incubation, 1 ml of Cytowash/Cytoperm solution (BD) was added and mixed well. Then the mixture was centrifuged at 1700 rpm for 5 minutes and the cell pellet was washed. 50 μl of a primary antibody solution (B cell hybridoma cell culture medium or purified primary antibody solution) was added to the washed sample, and the incubation was performed at 4° C. for 40 minutes. After incubation, the cells were washed three times, and treated with anti-mouse Igs-RPE (DaKo) at 4° C. for 40 minutes. Then, the cells were washed an additional three times, and the cell pellet was resuspended in 300 μl of PBS, followed by analysis using a FACSCaliber (BD). Mean values of fluorescence corresponding to antibody reactions were obtained and compared. 50 μl of mouse antibody free DMEM medium was added to the control group showing no antibody reaction.
(§2) The reactivity of TAB-K94 autoantibodies against various cancer cell lines was examined by flow cytometric analysis after intracellular staining of various cancer cell lines in the same manner as in Example 1 (FIG. 3A).

HT22 neuronal cells = assay: as above; type: cell-based; conditions: normal cell line
Description: as §1, §2

[1] = tested on: breast cancer cell line MCF-7; assay: as above; type: cell-based
Description: as §1, §2

[2] = tested on: liver cancer cell line HepG2; assay: as above; type: cell-based
Description: as §1, §2

[3] = tested on: human breast cancer tissues; assay: Immunohistostaining of human cancer tissues using TAB-K94 antibody; conditions: in particular invasive front
Text: (§3) Based on the reactivity against cancer cells, expression of TAB-K94 antibody-reactive antigen was examined by immunohistostaining of human liver cancer tissues and breast cancer tissues using TAB-K94 antibodies.

[4] = tested on: human liver cancer tissues; assay: as above; conditions: liver cancer tissues (data not shown)
Text: as §3

[5] = tested on: breast cancer cell line MCF-7; assay: Western blotting of cell lysate and serum-free cell culture medium with TAB-K94 antibody; type: binding; conditions: MCF-7 cell lysate and cell culture medium, 50 μg protein
Description: Expression of TAB-K94 antibody-specific antigen proteins was examined in various cancer cell lines by Western blotting (FIG. 5A). The detailed method is as follows. The cells to be analyzed were collected and dissolved in PBS containing RIPA buffer (0.1% (w/v) SDS, 0.1% (w/v) sodium deoxycholate, 1.0% (v/v) NP40, protease inhibitor cocktail (Roche)) to be used as protein analysis samples. Protein quantification was performed by Bradford assay. Each 50 μg of the prepared protein samples was run on 10% reduced SDS-PAGE, and transferred onto a PVDF membrane. […] As a result, the TAB-K94 antibody-specific antigens were found in the liver cancer cell lines including Hep3B, PLC/PRF/5, and SK-Hep1 as a band having a molecular weight of 45 kDa.
For induction of antibodies in the individual, a specific protein should be released into the blood. That is, extracellular release of proteins expressed within the cells supports the induction of autoantibodies. Therefore, the presence of antigens was examined in the cell culture medium of cell lines expressing TAB-K94 antibody-specific antigens by Western blotting. Each 10 ml of serum-free cell culture medium was collected, and concentrated, and each 50 μg of the quantified protein was run on 10% reduced SDS-PAGE. Western blotting was performed in the same manner as above.

[6] = tested on: MCF-7 or HT29 cells having the suppressed CK8 or CK18 expression; assay: Flow cytometry of cells with siRNA-suppressed CK8 or CK18 expression; type: cell-based; conditions: 72 hours after siRNA treatment
Description: As siRNAs for the suppression of CK8 and CK18 expression, siRNAs (CK8 Sense: 5′-CCG CAG UUA CGG UCA ACC A(dTdT)-3′ (SEQ ID NO. 23), Antisense: 5′-UGG UUG ACC GUA ACU GCG G(dTdT)-3′ (SEQ ID NO. 24), CK18 Sense: 5′-CUC ACA GAG CUG AGA CGU A(dTdT)-3′ (SEQ ID NO. 25), Antisense: 5′-UAC GUC UCA GCU CUG UGA C(dTdT)-3′ (SEQ ID NO. 26)) provided by Bioneer were used, and injected into MCF-7 or HT29 cells using Lipofectamine 2000 (Invitrogen). 72 hours after siRNA treatment, the cells were collected to extract total RNA, and 5 μg of RNA was used as a template to synthesize cDNA. The synthesized cDNA was used as a template to perform polymerase chain reaction using primers having specificity to CK8 and CK18. The resulting product was analyzed on a 1% agarose gel.
The cells showing the suppressed CK8 and CK18 expression by siRNA in RT-PCR were subjected to flow cytometry in the same manner as in Examples 1 and 3, in order to examine their TAB-K94 antibody reaction. […] However, the previous studies reported that […] form a complex to exert intracellular function. Therefore, it can be assumed that variation in the expression of one of the two proteins affects that of the other protein, and this assumption was examined by Western blotting. After treatment of siRNA for CK8 or CK18, Western blotting was performed using specific antibody to each.

CK18 [7] = biological target: T1, CK18 (Homo sapiens, UniProt P05783); assay: Western blotting of recombinant proteins with TAB-K94 antibody; type: binding; conditions: CK18 run alone
T1 construct: made in house; host or cells: E. coli BL21 (DE3)
T1 sequence (P05783 1-430): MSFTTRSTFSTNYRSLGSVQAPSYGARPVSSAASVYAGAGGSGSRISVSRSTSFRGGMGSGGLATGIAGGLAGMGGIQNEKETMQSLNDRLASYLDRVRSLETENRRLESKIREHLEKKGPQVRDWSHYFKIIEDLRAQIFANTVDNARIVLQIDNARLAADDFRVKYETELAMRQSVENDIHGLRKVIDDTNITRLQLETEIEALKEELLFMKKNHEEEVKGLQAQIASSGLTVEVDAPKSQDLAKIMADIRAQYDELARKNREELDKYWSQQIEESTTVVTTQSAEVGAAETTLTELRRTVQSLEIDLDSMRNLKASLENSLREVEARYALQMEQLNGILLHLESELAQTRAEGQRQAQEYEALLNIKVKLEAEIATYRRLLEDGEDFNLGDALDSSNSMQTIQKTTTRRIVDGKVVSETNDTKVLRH
Text: (§4) ID NO. 33), CK18 [NT] ID NO. 34), [NT] ID NO.

CK8 [8] = biological target: T2, CK8 (Homo sapiens, UniProt P05787); assay: as above; type: binding; conditions: CK8 run alone
T2 construct: made in house; host or cells: E. coli BL21 (DE3)
T2 sequence (P05787 1-483): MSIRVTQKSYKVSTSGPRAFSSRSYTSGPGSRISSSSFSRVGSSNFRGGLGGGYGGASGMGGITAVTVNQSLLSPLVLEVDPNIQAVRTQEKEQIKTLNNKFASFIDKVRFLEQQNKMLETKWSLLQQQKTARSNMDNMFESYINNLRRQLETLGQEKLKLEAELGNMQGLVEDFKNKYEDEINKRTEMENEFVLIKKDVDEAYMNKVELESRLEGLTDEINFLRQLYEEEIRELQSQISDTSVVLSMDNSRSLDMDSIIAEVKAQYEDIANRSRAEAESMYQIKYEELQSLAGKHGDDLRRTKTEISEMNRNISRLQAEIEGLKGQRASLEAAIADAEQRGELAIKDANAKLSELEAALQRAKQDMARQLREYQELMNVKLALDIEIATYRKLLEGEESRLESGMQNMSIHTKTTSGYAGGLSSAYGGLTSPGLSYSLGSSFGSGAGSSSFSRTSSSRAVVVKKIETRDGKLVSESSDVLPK
Text: as §4

[9] = biological target: T3, CK8/18 mixture (CK8/18 complex) (Homo sapiens, UniProt P05783+P05787); assay: as above; type: binding; conditions: mixture of CK8 and CK18
T3 construct: made in house; host or cells: E. coli BL21 (DE3)
T3 sequence (P05787 1-483): T2 sequence (P05787 1-483)
T3 sequence (P05783 1-430): T1 sequence (P05783 1-430)
Text: as §4

CK8 [10] = biological target: T2, CK8; assay: ELISA with recombinant protein as coating antigen; type: binding
CK18 [11] = biological target: T1, CK18; assay: ELISA with recombinant protein as coating antigen; type: binding
CK8/18 complex = biological target: T4, CK8/18 complex (Homo sapiens, UniProt P05783+P05787); assay: ELISA with recombinant protein as coating antigen; type: binding; conditions: mixture of the two proteins as coating antigen
T4 construct: made in house; host or cells: E. coli BL21 (DE3)
T4 sequence (P05787 1-483): T2 sequence (P05787 1-483)
T4 sequence (P05783 1-430): T1 sequence (P05783 1-430)

[12] = tested on: HepG2, MCF-7 and HT29 cells; assay: Intracellular localization by fluorescence staining and confocal laser microscopy; type: cell-based; conditions: primary antibody 5 μg/ml
Description: In order to examine intracellular localization of the TAB-K94 antigen expression, the corresponding cells were cultured on a coverslip, and then intracellular staining was performed, followed by observation using confocal laser microscopy (Zeiss). […] The stained coverslip was treated with a mounting solution containing DAPI, and placed on a slide. […] It was confirmed that the TAB-K94 antibody-specific antigen is a CK8/18 complex, and thus the cells were stained with CK8 and CK18-specific antibodies to compare with the localization of TAB-K94 antibody reaction.

Molecule: ISPDAHS (Ile-Ser-Pro-Asp-Ala-His-Ser) [K94p1]
- reactivity against TAB-K94 antibody in ELISA (TAB-K94 antibody): high reactivity

Molecule: TLSHTRT (Thr-Leu-Ser-His-Thr-Arg-Thr) [K94p7]
- reactivity against TAB-K94 antibody in ELISA (TAB-K94 antibody): no reactivity

B1: TAB-K94 antibody: Monoclonal autoantibody against cytokeratin 8/18 complex from hybridoma KCTC 11799BP; heavy chain SEQ ID NO. 1, light chain SEQ ID NO. 2 (antibody, V domains shown)
VH: XVXLXQSGPGILQPSQTLSLTCSFSGFSLSTFGMGVGWIRQPSGKGLEWLAHIWWDDDKYYNPALKSRLTISKDTSKNQVFLKIANVDTADTATYYCARIGGYYGSSSWYFDVWGTGTTVTVSSESQSFPNVRSS
VL: DIVITQTPSSLSASLGGKVTITCKASQDINKYIAWYQHKPGKGPRLLIHYTSTLQPGIPSRFSGSGSGRDYSFSISNLEPEDIATYYCLQYDNLLTFGGGTKLEIKRADAAPTVS
modifications: not fully specified; a heavy chain variable region; a light chain variable region
- reactivity measured by flow cytometry after intracellular staining (Chang liver cells): lower reactivity
- reactivity measured by flow cytometry after intracellular staining (HT22 neuronal cells): lower reactivity
- reactivity measured by flow cytometry after intracellular staining [1]: High reactivity; also recorded: noticeably increased
- reactivity measured by flow cytometry after intracellular staining [2]: High reactivity; also recorded: noticeably increased
- staining of tissue by immunohistochemistry [3]: strong complete staining; also recorded: strong staining around cell membrane
- staining of tissue by immunohistochemistry [4]: hardly any distinct reaction; also recorded: no distinct reaction
- reactivity in Western blotting [5]: very high reactivity
- TAB-K94 antibody reaction after siRNA suppression of CK8 or CK18 [6]: reduced
- reactivity in Western blotting (CK18 [7]): no reactivity
- reactivity in Western blotting (CK8 [8]): no reactivity
- reactivity in Western blotting [9]: showed reactivity
- reactivity in ELISA (CK8 [10]): not observed
- reactivity in ELISA (CK18 [11]): not observed
- reactivity in ELISA (CK8/18 complex): the reactivity was observed
- intracellular localization of staining [12]: strongly localized in the cell membrane
